The text below walks through data of paper doi:10.1101/2025.09.29.679115.

In data set [1] the target is T1, MBP-HSFA1d (Arabidopsis thaliana, UniProt Q9LQM7 1-485). In words: EMSA. (In EMSA bound probe runs differently from free probe, usually more slowly.)
The target of data set [2] is T1, MBP-HSFA1d. Nature of the data set: competition.

T1 sequence (Q9LQM7 whole entry): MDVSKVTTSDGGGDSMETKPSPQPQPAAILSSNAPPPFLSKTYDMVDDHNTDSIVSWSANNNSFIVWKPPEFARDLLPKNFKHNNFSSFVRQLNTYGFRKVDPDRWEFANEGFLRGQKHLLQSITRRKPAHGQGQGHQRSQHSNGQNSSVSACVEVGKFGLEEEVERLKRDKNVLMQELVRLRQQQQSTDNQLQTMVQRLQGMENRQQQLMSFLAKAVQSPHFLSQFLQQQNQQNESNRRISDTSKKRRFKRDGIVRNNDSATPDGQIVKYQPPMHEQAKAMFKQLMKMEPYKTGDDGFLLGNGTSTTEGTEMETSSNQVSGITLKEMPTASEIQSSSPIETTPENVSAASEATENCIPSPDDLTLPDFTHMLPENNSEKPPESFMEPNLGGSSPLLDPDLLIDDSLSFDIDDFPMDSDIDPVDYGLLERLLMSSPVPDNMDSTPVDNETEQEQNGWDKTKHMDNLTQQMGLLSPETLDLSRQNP

B1: WIND1 promoter probe (dsDNA)
DNA 1: AATCCCTCCCTAAACCTCTAGAGAGTTCTATTAATTTTTG
DNA 2: CAAAAATTAATAGAACTCTCTAGAGGTTTAGGGAGGGATT
Take B1: the binding result with MBP-HSFA1d [1] is “binds”.

B2: WIND1 unlabelled competitor (dsDNA)
DNA 1: AATCCCTCCCTAAACCTCTAGAGAGTTCTATTAATTTTTG
DNA 2: CAAAAATTAATAGAACTCTCTAGAGGTTTAGGGAGGGATT
On to B2, for which the binding result with MBP-HSFA1d [2] is “binds”.

B3: ZAT6 promoter probe (dsDNA)
DNA 1: AATTCTTATCACTTAAGAATATTCTAGAGAGCTCTCACTT
DNA 2: AAGTGAGAGCTCTCTAGAATATTCTTAAGTGATAAGAATT
For B3, the binding result with MBP-HSFA1d [1] is “binds”.

B4: WIND1_m probe (dsDNA)
DNA 1: AATCCCTCCCTAAACCTCTATGGGACCTTATTAATTTTTG
DNA 2: CAAAAATTAATAAGGTCCCATAGAGGTTTAGGGAGGGATT
For the molecule B4, the binding result with MBP-HSFA1d [1] is “no binding”.
